In publication PMC12317982:

B1: EMC1-FLAG [human] / SLC3A2, Strep-tagged [not stated] (parent)
chain 1: YEDQVGKFDWRQQYVGKVKFASLEFSPGSKKLVVATEKNVIAALNSRTGEILWRHVDKGTAEGAVDAMLLHGQDVITVSNGGRIMRSWETNIGGLNWEITLDSGSFQALGLVGLQESVRYIAVLKKTTLALHHLSSGHLKWVEHLPESDSIHYQMVYSYGSGVVWALGVVPFSHVNIVKFNVEDGEIVQQVRVSTPWLQHLSGACGVVDEAVLVCPDPSSRSLQTLALETEWELRQIPLQSLDLEFGSGFQPRVLPTQPNPVDASRAQFFLHLSPSHYALLQYHYGTLSLLKNFPQTALVSFATTGEKTVAAVMACRNEVQKSSSSEDGSMGSFSEKSSSKDSLACFNQTYTINLYLVETGRRLLDTTITFSLEQSGTRPERLYIQVFLKKDDSVGYRALVQTEDHLLLFLQQLAGKVVLWSREESLAEVVCLEMVDLPLTGAQAELEGEFGKKADGLLGMFLKRLSSQLILLQAWTSHLWKMFYDARKPRSQIKNEINIDTLARDEFNLQKMMVMVTASGKLFGIESSSGTILWKQYLPNVKPDSSFKLMVQRTTAHFPHPPQCTLLVKDKESGMSSLYVFNPIFGKWSQVAPPVLKRPILQSLLLPVMDQDYAKVLLLIDDEYKVTAFPATRNVLRQLHELAPSIFFYLVDAEQGRLCGYRLRKDLTTELSWELTIPPEVQRIVKVKGKRSSEHVHSQGRVMGDRSVLYKSLNPNLLAVVTESTDAHHERTFIGIFLIDGVTGRIIHSSVQKKAKGPVHIVHSENWVVYQYWNTKARRNEFTVLELYEGTEQYNATAFSSLDRPQLPQVLQQSYIFPSSISAMEATITERGITSRHLLIGLPSGAILSLPKALLDPRRPEIPTEQSREENLIPYSPDVQIHAERFINYNQTVSRMRGIYTAPSGLESTCLVVAYGLDIYQTRVYPSKQFDVLKDDYDYVLISSVLFGLVFATMITKRLAQVKLLNRAWR
chain 2: MSQDTEVDMKEVELNELEPEKQPMNAASGAAMSLAGAEKNGLVKIKVAEDEAEAAAAAKFTGLSKEELLKVAGSPGWVRTRWALLLLFWLGWLGMLAGAVVIIVRAPRCRELPAQKWWHTGALYRIGDLQAFQGHGAGNLAGLKGRLDYLSSLKVKGLVLGPIHKNQKDDVAQTDLLQIDPNFGSKEDFDSLLQSAKKKSIRVILDLTPNYRGENSWFSTQVDTVATKVKDALEFWLQAGVDGFQVRDIENLKDASSFLAEWQNITKGFSEDRLLIAGTNSSDLQQILSLLESNKDLLLTSSYLSDSGSTGEHTKSLVTQYLNATGNRWCSWSLSQARLLTSFLPAQLLRLYQLMLFTLPGTPVFSYGDEIGLDAAALPGQPMEAPVMLWDESSFPDIPGAVSANMTVKGQSEDPGSLLSLFRRLSDQRSKERSLLHGDFHAFSAGPGLFSYIRHWDQNERFLVVLNFGDVGLSAGLQASDLPASASLPAKADLLLSTQPGREEGSPLELERLKLEPHEGLLLRFPYAA
B2: EMC1-FLAG [human] / BCAP31, Strep-tagged [not stated] (parent)
chain 1: B1 chain 1
chain 2: MSLQWTAVATFLYAEVFVVLLLCIPFISPKRWQKIFKSRLVELLVSYGNTFFVVLIVILVLLVIDAVREIRKYDDVTEKVNLQNNPGAMEHFHMKLFRAQRNLYIAGFSLLLSFLLRRLVTLISQQATLLASNEAFKKQAESASEAAKKYMEENDQLKKGAAVDGGKLDVGNAEVKLEEENRSLKADLQKLKDELASTKQKLEKAENQVLAMRKQSEGLTKEYDRLLEEHAKLQAAVDGPMDKKEE
B3: EMC1-FLAG [human] / TMEM38B, Strep-tagged [not stated] (parent)
chain 1: B1 chain 1
chain 2: MDSPWDELALAFSRTSMFPFFDIAHYLVSVMAVKRQPGAAALAWKNPISSWFTAMLHCFGGGILSCLLLAEPPLKFLANHTNILLASSIWYITFFCPHDLVSQGYSYLPVQLLASGMKEVTRTWKIVGGVTHANSYYKNGWIVMIAIGWARGAGGTIITNFERLVKGDWKPEGDEWLKMSYPAKVTLLGSVIFTFQHTQHLAISKHNLMFLYTIFIVATKITMMTTQTSTMTFAPFEDTLSWMLFGWQQPFSSCEKKSEAKSPSNGVGSLASKPVDVASDNVKKKHTKKNE

Variants of: B1
Assay: co-IP and immunoblot (quantified)
Details: with SLC3A2, Strep-tagged;; read off a plot

Row | ratio to parent | Variant
1 | 0.87 | chain 1 F948A F952A
2 | 0.51 | chain 1 V941K S944K S945K

Variants of: B2
Assay: co-IP and immunoblot (quantified)
Details: with BCAP31, Strep-tagged;; read off a plot

Row | ratio to parent | Variant
3 | 0.75 | chain 1 F948A F952A
4 | 0.57 | chain 1 V941K S944K S945K

Variants of: B3
Assay: co-IP and immunoblot (quantified)
Details: with TMEM38B, read off a plot

Row | ratio to parent | Variant
5 | 0.4 | chain 1 F948A F952A
6 | 0.78 | chain 1 V941K S944K S945K
